15 sequences from a protein production outcome set (Wang et al. 2014) can be followed below.

This data set can be described thus: label from the status in PepcDB records.

For the sequence “MRLDRNPWHWRIWVCIAVLALWPRAASADTITPERIADALSKLDALAQGAVADGGVPGLAIAVVHDDEVIFLRGFGHREAGKPEAVDADTVFQIASLSKPVSATVVAALVSDGIVSWDSKVADLDPAFRLADPYPTSQLTVRDLFSHRSGLPGTAGDDLEDIGYDRAEILHRLRFVPPSSSFRAGYSYSNFGLTEGAVAAAMPTGKSWEEVAQEKLYRPLGMASTSSRHSDFVKHADRAALHIKVDGAWAAKIERDPDAQAPAGGVSSTARDLSQWVRLILGNGVYAGKTLIAADALDQTHVPLMTRGKNPVSGGESFYGLGWNVEFGRHGLSWGHAGAFSVGARTLVTIFPQDKLGIVIIANAFPTGVPEGLSDSFADLVFDGSVQKDWVKAWDGIYAGMFGPVVEAAKATYAAPPSPARPARPASAYAGRYANDFFGDAVVASAGDGLVLKVGPHGARSYSLAHFDGDLFLTYPDAETPDRPTGVSFVVGPDGKASAMTIGFLDDNHLGTLRRVGD”, the protein production result is reported as “failed”. With “MRLGTFHKKKRFYINKIKINFLSFLFRNKINNQITDPAQVKSCLIIHDNNKLGDLIVLSSIYRELYSKGVKITLLTNRKGGEFLSNNKNIFEFCIKESTGFLEMLTLCKHLRDLQFDIVLDPFETMPSFKHSLILSSLKDSYILGFDHWYKRYYSFYHPHDECLKEHMSTRAIEILKHIYGEGKFSTNYDLHLPVDVEDKIKEFIGDTRIVIINPLGAKKICRLTFEQIKVIYQEVKTHFENYRIIFTGLPQDLLTIPILEIETLPFDEFIYTVALTKYSDFVISVDTALVHIAAAYHKPTLAFYPNSRTPEYPSHLIWSPNHHKSIQIVSPTYTVKDIDTETLTNSVKRLSCIDKK” the entry was “failed”; with “MRLINTTSSHPELVRNQLQNTDAKLVEVYSAGNTDVVFTKAPKHYELLISNKYRAIKDEELEAIREFFLKRKIDQSIIIQEQMKSLHTAKLIEISYPTTA”, “failed”; with “MRLITNLLIIAILFSVPHVSIARIPEVVLSKKSAVVSIYVEDKQKIVAGGSGFIIDQNGIIVTNAHVIEPWNKSTTGILYVKKSDGTFLEPTEVIAADAVKDVALVRVKEQNLPFIKLTSNITPTQGDDVVVIGNPLGLETTVTDGIISAIRGEDGFLQISAPISQGSSGSPVLNSKGEAIGVATSIMAGGQNLNFAIPASYVTNLPTQEKAPPVKGLKKRAESPSGFETVTPEDIERDVVQIPEGAVHKGKVLFATDSGGYTYIRIEENGAPLWVAVTQTTISIGDIIEFPDSPPMTGFNSKSMNMTFDKITFAAGIRIVQRGNVEFKSPEEKHLYYAEQYSSMNNTPAAIEEISKAIELNPKKAEYYGKRANYYLQRRMYADSKSDEYQQIVASNRESCRNAVDDLNKAIAINPGNDVFYATQARIFTDSLFCDYANADKAIKLYETAIQLNPKKADYYVEKGWQHKIKNDFSKVLDCAKKALSISPNNEDAHYLYGSYYEENNKYDKALEYYTKGLSVSDNVTFGYFYIDGVMEKTKKYDDAVRIYTDLIKQHPKRLIFYNGRAEYYAKLKNYKKAIADYTTCIKLNPNSEYNYNLRANCYYEDGKKSEALTDYRTACDMKHAESCEMIPIVFADIKRGANWVPVAASSDVNYYYDKKGYTKNKNGVAVAWIRGEITDKEEYIKDIDISEYEKEKYKNVSHVMSRFEVDCPNQKLRVPISLIYAENGNVIRSYEDEKTKYSNIIPNSIGASIHENLCKGAPAKKIGKKK”, “failed”. With “MRLLHTSDWHLGRSFHGVGMLDAQRNFVDQLVSLVQSKSVDVVLIAGDVYDRALPGLDVVKLLDDALVRITQAGAGVVLTSGNHDSAIRLGFASRLLERGGVHLRTKVEDIDVPVLFPLGGDENAKNSTLNGQVVVYGIPYLEPRLVAERLGAENANHFDVTLAAVERIRRDVEARRASGPVYPVVLAHTFASGGITSESERDLSIGGLGAVPLDLFDDFAYTALGHLHGRQELAPHVRYSGSPLAYSFSEAKHHKGAWLVDLDAGGVIAVEEVLWEAPKALATLRGTLDDLLGAEEHAWAENAYCQITLTDTQRPAQAMERVRTRFPDTLVLSFDPQGAAARTSTSYSNRLAEAEDDLGVCCGFLDHVRDRDASDAEEAALREALEAVRLQEAEL”, the protein production result is recorded as “failed”.

For “MRLLSSPINRGFFDYVELYPSLVSSYFPPPDRPSAVLSVGETRYVNSVKQTASLDSLNDYEEQFPPLTGGSKTKKFYLGSTNPSTPCQSSQLQNWTSGKDALSLQRNLGCKNRRRRRASRFLHEESNGTTFEVGAGIGSPTSMVHFDSTNPSSSSKSSQSQNLKIRKVRNHRNSGFKSRDQSPQRIKDPPPFDICSSVLERNDTSIKDWILADETNRETVEVSNKHKVIRPGMVLLKDFLTPDIQVDIVKTCRELGVKPTGFYQPGYSVGSKLHLQMMCLGRNWDPQTKYRKNTDIDSKAPEIPVTFNVLVEKAIREAHALIDRESGTEDAERILPVMSPDICIVNFYSETGRLGLHQDRDESEESIARGLPIVSFSIGDSAEFLYGEKRDVEEAQGVILESGDVLIFGGESRMIFHGVKSIIPNSAPMSLLNESKLRTGRLNLTFRHF”, the protein production result was “failed”. With “MRLLVSCVDSGSIKEVLCNIGTDTSVQSALQPFHVAPHLAEGLKAYVDRMWVISEDEAILARNSGVVELVKISKHLKENEALQVDPKGESKNEKSLSDDLPKFDISEFEITSSVSDLFDDAKLESLSSKSVKRTKLVDGFVTLCPIKKDSSNNTFVAATKSGLLHIIKKGEDKKLIKLASLGLKAPVEFLQLYDLEDTDTDKYIFAYGGEENLIKLVEIDSSFQSLKQIWEAKNVKNDRLDMRVPVWPMALRFLEPSPGKTEKGKLNYQFAAITRWSHLTKYSTQHGRKPFAQIDLLPNREPLSQMEVFDAKGENVVSSLGNFQSETFNELNVITTDYKKNVFKFDGNGRMLGKVGRDDITGSSTYIHVHDGKYLLQGGLDRYVRIFDIKTNKMLVKVYVGSRINFIVMLDDVEIEMPLSPSAKAAKGKQKRKVTELEEDADELWNKLEGKVAASKASKKSKI” the entry was “not failed”; with “MRLMDILEILYYKKGKEFGILEKKMKEIFNETGVSLEPVNSELIGRIFLKISVLEEGEEVPSFAIKALTPKENAVDLPLGDWTDLKNVFVEEIDYLDSYGDMKILSEKNWYKIYVPYSSVKKKNRNELVEEFMKYFFESKGWNPGEYTFSVQEIDNLF”, “not failed”. With “MRLPLNQRVAILLHEGTTGTIGKTGLALLRYSEAPIVAVIDRNCAGQSLREITGIYRYVPIVKSVEAALEYKPQVLVIGIAPKGGGIPDDYWIELKTALQAGMSLVNGLHTPLANIPDLNALLQPGQLIWDVRKEPANLDVASGAARTLPCRRVLTVGTDMAIGKMSTSLELHWAAKLRGWRSKFLATGQTGVMLEGDGVALDAVRVDFAAGAVEQMVMRYGKNYDILHIEGQGSLLHPGSTATLPLIRGSQPTQLVLVHRAGQTHNGNNPHVPIPPLPEVIRLYETVASGGGAFGTVPVVGIALNTAHLDEYAAKEAIAHTIAETGLPCTDVVRFGADVLLDAVMQN” the entry was “not failed”; with “MRLRHLSDPDSLPALDKSFAIERPALGLAPDAPPVRILLLYGSLRARSFSRLAVEEAARLLQFFGAETRIFDPSDLPLPDQVQSDDHPAVKELRALSEWSEGQVWCSPERHGQITSVMKAQIDHLPLEMAGIRPTQGRTLAVMQVSGGSQSFNAVNTLRLLGRWMRMFTIPNQSSIAKAFQEFDAAGRMKPSPYYDRIADVMEELVRFTALVRPHREALTDRYSERKAAGHVIDEATDLSSIAIAPQPLPESETS”, “not failed”.

On to “MRLSELGTGEKGVIVKVLGHGGFRKRIVEMGFIKGKTVEVLLNAPLKDPIKYKVLGYEISLRRQEAEMIEVVSEEEAKKQAEKAVYHEGLPEDVSVKEEDMKRLALGKRRTINVALVGNPNSGKTSLFNLASGAHEHVGNYSGVTVDAKEGYFDFEGYHFRIVDLPGTYSLSAYTPEEIYVRRHIVDETPDVIINVVDSSNLERNLYLTTQLIDMNVRMVVALNIYDELESSGNTLDYHLLSKLFGVPMVPTVSKKNRGLDTLFHVVINLYEGVDFFDKQGNMNPEVLKDLTEWHDSLEDRKNHEEEHLEDYVREHKRKGRVFRHIHINHGPDLEKAIDAVKEEVSKNEFIRHKYSTRFLSIKLLENDPDIESFVRTLPNAGEIFRIRDKMAKRVQETMNEDCESAITDAKYGFISGALKETFTDNHLEQAQTTKVLDAIVTHRIWGYPIFFLFMYLMFEGTFVLGEYPMMGIEWLVGQIGDLIRNNMSEGPLKDMLVDGIVGGVGGVIVFLPNILILYFCISLMEDSGYMARAAFIMDKIMHKMGLHGKSFIPLIMGFGCNVPAIMASRTIENRKSRLITMLINPLMSCSARLPIYLLLVGAFFPNNASLVLLSIYAIGIFLAVLLARLFSKFLVKGDDTPFVMELPPYRMPTAKSIFRHTWEKGAQYLKKMGGIIMIASIIIWFLGYYPNHEAYETVAEQQENSYIGQLGRAIEPVIKPMGFDWKLGIGLISGVGAKELVVSTLGVLYVDDPEADEASLAERIPITPLVAFCYMLFVLIYFPCIAALAAIKQESGSWKWALFAACYTTGLAWLVAFSVYQIGGMFV”, for which the protein production entry is “failed”. “MRLSRIKLPKINSLYGRIFAIFWFTMLLVLIAVLSLPHLDPRKARDIPDEHYQRIIETRDAIQNKYSKETDLGRILFRVEGNRAGKHDPRPRVFFSDYNGNVLTTDKRSNFQLRAMQNFVTSIEDYNKPKQRLYGRYMIAGPVPIVLADSELLMYVGFKWNEPPPLLLRLFDHPFQLLLAVMLVSTPLLLWLAWALSQPARRLEAAAQRVAKGEFVIDPNLEKGTAEFRQAGSSFNQMVEAVNQMISGQQRLLSDISHELRSPLTRLRMASALATRKQGDSPELVRIDTEAQRLEQMISELLELSRMQVNSHMTRETQPIESLWEEIIKDAQFEAEQMGKTLRYSEIPERHISGNPKLLMSAVENIIRNAIYYGKDEVQIDIQDKTDTLTITVDDNGDGVPDEELEAIFRPFYRVSTARDRHSGGTGLGLTITESAIRQHSGTIVASRSPLGGLRVSITLPLVKVGK”: the protein production result was “failed”. With “MRLTTLWQNRSPGDRHLSTYFCFAAVRLLLVFVPQLGYVHPDEFFQSVEVMTGDHFRLEHTRTWEFNNSLPVRSIVLPFALLRIPWSFYEFVAECLKAWWQLELLGTYAYVVFPRLIYTLISFSNDYCLFRICRLYGLRFEIRLLAMGSSWILLVFGTRTFSNSLEMAMCSWLLCLVSECMLRTNTVVYKKEFLEEKYDKAESISERVRIWKLKNSLPAHNLQHLMAMSTICVAGVFNRPTFLLFGAPMVFFWLLRGMGTRSITFRDFNLRIALFCLCALPALVLFIFCDSLYYQHLTLGELHMMHLSIDNFVFTPWNFIKANLDSAQTASHGVHPCYVHLMVNMPMLFNVLALASLGAFAQLLLRFFRAEYQVLPRFQSIVSLMSGAIFVPLFFLSLINHQEPRFLLPVTFPLILLHAPKLITGFSAKYPFQKDHPLLRLFYDKLLSSKASGPYLLKIWYVSNVALTLFFGFIHQAGVYPLAADISHVIATKPAATHVHLITSHIYSLPLHLINIPSSRVLHFNRLTHQRYRRPRDFYMYEYGGLPLDSLLQKVKLISGSCEVKKSGPSRRRYKLYLAIPASLSADLHEALVHSNASSYLNFELLKVFYPHLSTEAFPHLQGRHPCDVDAPHWAHDDLRGTCSAEQLPAFSFAYLNKQFSSFVHQLGLALYEIDVTRNKPRYVSLAYSGCSPTKGYFLLFIQFLICLALCIAAAQAGFIASPVTTYAAAPAYAASYAAPVAYSAPVATYAAAAPAYSTYAAAAPAYSTYAAAAPAYSTYAAAAPAYTASVYSAPAYTAPVTTYAAGAAYAAPVTTYSAPAIVSPILKKK” the entry was “failed”; with “MRLVADSACDIKELRGMVFKAVPLTISTDNEEFCDDGQLDIHRMLDILEKHKGRSYTACPGIDAWLEAFGDDDEIFVVTITAGMSGTYNSAMAARAVYLEEHPQAKVRVIDSKSTGPQMRIILEQLQQMIEEGKKFEEIDGAIDAYMQKTRLFCSLKSLHNLAQNGRVSKVVASAAEVLGISVIGTASSHGTLEAIGKCRGDKKLLVKLQALLDDAGYEGGKLRICHVENEALADKIADMIKQAYGTTDVCVYKAGGLCSYYAERGGIILSCETK”, “not failed”.

Regarding “MRLVEIGRFGAPYALKGGLRFRGEPVVLHLERVYVEGHGWRAIEDLYRVGEELVVHLAGVTDRTLAEALVGLRVYAEVADLPPLEEGRYYYFALIGLPVYVEGRQVGEVVDILDAGAQDVLIIRGVGERLRDRAERLVPLQAPYVRVEEGGIHVDPIPGLFDLEHHHHHH”, the protein production result is given as “failed”.
